Data set [1] addresses T1, MORC2 wild type, dephosphorylated (Homo sapiens) (UniProt Q9Y6X9).
T1 sequence: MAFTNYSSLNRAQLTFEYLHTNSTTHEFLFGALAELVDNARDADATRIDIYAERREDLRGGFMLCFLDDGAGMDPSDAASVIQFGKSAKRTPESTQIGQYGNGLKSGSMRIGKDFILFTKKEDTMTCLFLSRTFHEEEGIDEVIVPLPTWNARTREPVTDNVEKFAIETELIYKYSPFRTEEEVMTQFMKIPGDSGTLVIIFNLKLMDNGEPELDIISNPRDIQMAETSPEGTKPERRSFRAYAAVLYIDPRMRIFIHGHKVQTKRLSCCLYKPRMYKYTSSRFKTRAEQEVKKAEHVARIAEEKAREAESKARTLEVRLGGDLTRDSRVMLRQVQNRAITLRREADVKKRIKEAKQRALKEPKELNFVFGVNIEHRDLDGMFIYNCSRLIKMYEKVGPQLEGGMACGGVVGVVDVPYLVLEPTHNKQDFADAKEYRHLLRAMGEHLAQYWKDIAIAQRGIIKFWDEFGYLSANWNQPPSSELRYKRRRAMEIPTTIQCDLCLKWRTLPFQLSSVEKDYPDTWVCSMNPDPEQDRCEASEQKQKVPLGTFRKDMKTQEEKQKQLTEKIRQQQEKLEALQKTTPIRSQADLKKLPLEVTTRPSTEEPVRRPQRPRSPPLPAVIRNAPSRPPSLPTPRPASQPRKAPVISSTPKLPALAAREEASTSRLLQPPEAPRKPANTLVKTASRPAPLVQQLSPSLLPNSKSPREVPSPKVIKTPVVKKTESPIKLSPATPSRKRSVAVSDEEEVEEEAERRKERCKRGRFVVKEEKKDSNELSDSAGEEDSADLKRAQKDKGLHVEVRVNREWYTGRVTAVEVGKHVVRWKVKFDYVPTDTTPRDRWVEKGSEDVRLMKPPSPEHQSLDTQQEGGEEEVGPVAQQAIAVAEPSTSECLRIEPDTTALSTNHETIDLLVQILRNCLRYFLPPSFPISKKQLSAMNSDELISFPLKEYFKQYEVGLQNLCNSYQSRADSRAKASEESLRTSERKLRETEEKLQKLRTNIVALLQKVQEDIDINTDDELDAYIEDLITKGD
Description: fluorescence anisotropy. The conditions noted are these: FA: 50 mM NaCl, 3 mM MgCl2, 20 mM Na-HEPES pH 7.4, 1 mM TCEP, 10% glycerol, 0.025 mM ZnCl2, 50 ug/ml BSA, 1 nM nucleic acid, room temperature.

Data set [2] deals with the molecule itself. Nature of the data set: SEC-MALS; coiled coil 3 1.5 mg/mL, 150 mM NaCl, 3 mM MgCl2, 20 mM Na-HEPES pH 7.4, 0.5 mM TCEP, 1.5% glycerol, 0.025 mM ZnCl2; Wyatt 010 column.
Data set [3] concerns the molecule itself. Description: SEC-MALS; full-length MORC2 2 mg/mL, 150 mM NaCl, 3 mM MgCl2, 20 mM Na-HEPES pH 7.4, 0.5 mM TCEP, 1.5% glycerol, 0.025 mM ZnCl2, without AMP-PNP; Wyatt 030 column.

“ATATCGATGTATATATCTGACACGTGCCTGGAGACTAGGGAGTAATCCCCTTGGCGGTTAAAACGCGGGGGACAGCGCGTACGTGCGTTTAAGCGGTGCTAGAGCTGTCTACGACCAATTGAGCGGCCTCGGCACCGGGATTCTGATAT (double strand) [Nucleosome on 2-601-2 DNA]”: the equilibrium dissociation constant (Kd) in data set [1] was 16 nM. In other words, the double-digit nanomolar range.

B1: MORC2 coiled coil 3 (domain or fragment, human, UniProt Q9Y6X9 900-1032, looked up)
chain: ALSTNHETIDLLVQILRNCLRYFLPPSFPISKKQLSAMNSDELISFPLKEYFKQYEVGLQNLCNSYQSRADSRAKASEESLRTSERKLRETEEKLQKLRTNIVALLQKVQEDIDINTDDELDAYIEDLITKGD
notes: also called CC3; source: E. coli BL21 (DE3) RIL, purified (HisTrap, TEV cleavage, S75 SEC); not shown: His6, N-terminal, cleaved
B1: in data set [2], the “stoichiometry N” value was found to be 2.

B2: full-length human MORC2 (natural protein, UniProt Q9Y6X9 1-1032, looked up)
chain: T1 sequence
notes: Cloned into both 438-B (N-terminal His6-TEV) and 438-C (N-terminal His6-MBP-TEV); the tag was removed with TEV protease; also called wildtype MORC2; dephosphorylated MORC2; not shown: His6, N-terminal, cleaved
For the molecule B2, in data set [3], the “stoichiometry N” value came out at 2.

These data come from doi:10.1101/2024.06.05.597643, “Identification and characterization of a human MORC2 DNA binding region that is required for gene silencing” (bioRxiv, 2024).
